Measured values: PMC11189301, “Structure of the human outer kinetochore KMN network complex” (Nature Structural & Molecular Biology, 2024)
Substitutions are numbered along the chain they refer to. Names and notes keep the numbering of the source.

B1: Knl1 residues 2131–2337, mut2 (S2270R S2272W) (domain or fragment, H. sapiens, UniProt Q8NG31 2131-2337, looked up)
chain: SLSEWDVVEWSDDQAVFTFVYDTIQLTITFEESVVGFPFLDKRYRKIVDVNFQSLLDEDQAPPSSLLVHKLIFQYVEEKESWKKTCTTQHQLPKMLEEFSLVVHHCRLLGEEIEYLKRWGPNYNLMNIDINNNELRLLFRSWAAFAKFEITLFLSAYYPSVPLPSTIQNHVGNTSQDDIATILSKVPLENNYLKNVVKQIYQDLFQD
notes: Knl1, human, residues 2131-2337, RWD-C surface mutant 2; also called Knl1^mut2; KNL1^mut2; source: E. coli BL21 (DE3), purified (Ni-NTA, reverse IMAC, Superdex 75); not shown: His6, N-terminal, cleaved
B2: MIS12 complex (Mis12, Pmf1, Dsn1, Nsl1), wild type, full length (complex, Homo sapiens)
chain 1: MSVDPMTYEAQFFGFTPQTCMLRIYIAFQDYLFEVMQAVEQVILKKLDGIPDCDISPVQIRKCTEKFLCFMKGHFDNLFSKMEQLFLQLILRIPSNILLPEDKCKETPYSEEDFQHLQKEIEQLQEKYKTELCTKQALLAELEEQKIVQAKLKQTLTFFDELHNVGRDHGTSDFRESLVSLVQNSRKLQNIRDNVEKESKRLKIS
chain 2: MAEASSANLGSGCEEKRHEGSSSESVPPGTTISRVKLLDTMVDTFLQKLVAAGSYQRFTDCYKCFYQLQPAMTQQIYDKFIAQLQTSIREEISDIKEEGNLEAVLNALDKIVEEGKVRKEPAWRPSGIPEKDLHSVMAPYFLQQRDTLRRHVQKQEAENQQLADAVLAGRRQVEELQLQVQAQQQAWQALHREQRELVAVLREPE
chain 3: MTSVTRSEIIDEKGPVMSKTHDHQLESSLSPVEVFAKTSASLEMNQGVSEERIHLGSSPKKGGNCDLSHQERLQSKSLHLSPQEQSASYQDRRQSWRRASMKETNRRKSLHPIHQGITELSRSISVDLAESKRLGCLLLSSFQFSIQKLEPFLRDTKGFSLESFRAKASSLSEELKHFADGLETDGTLQKCFEDSNGKASDFSLEASVAEMKEYITKFSLERQTWDQLLLHYQQEAKEILSRGSTEAKITEVKVEPMTYLGSSQNEVLNTKPDYQKILQNQSKVFDCMELVMDELQGSVKQLQAFMDESTQCFQKVSVQLGKRSMQQLDPSPARKLLKLQLQNPPAIHGSGSGSCQ
chain 4: MAGSPELVVLDPPWDKELAAGTESQALVSATPREDFRVRCTSKRAVTEMLQLCGRFVQKLGDALPEEIREPALRDAQWTFESAVQENISINGQAWQEASDNCFMDSDIKVLEDQFDEIIVDIATKRKQYPRKILECVIKTIKAKQEILKQYHPVVHPLDLKYDPDPAPHMENLKCRGETVAKEISEAMKSLPALIEQGEGFSQVLRMQPVIHLQRIHQEVFSSCHRKPDAKPENFITQIETTPTETASRKTSDMVLKRKQTKDCPQRKWYPLRPKKINLDT
notes: Mis12, subunit of human MIS12C; Pmf1, subunit of human MIS12C; Dsn1, subunit of human MIS12C; Nsl1, subunit of human MIS12C; The DS tag on Pmf1 is TEV cleavable; a cleavage is not described; also called MIS12C (WT); wild-type MIS12C; source: High-5 insect cells (baculovirus), purified (Strep-Tactin, Resource S, Superdex 200); copies: + + +
B3: MIS12 complex with Nsl1 E219R V220R F221A (complex, Homo sapiens)
chain 1: B2 chain 1
chain 2: B2 chain 2
chain 3: B2 chain 3
chain 4: B2 chain 4 with E219R, V220R, F221A
notes: Mis12, subunit of human MIS12C; Pmf1, subunit of human MIS12C; Dsn1, subunit of human MIS12C; Nsl1, subunit of human MIS12C, E219R V220R F221A; also called MIS12C^(Nsl1-E219R V220R F221A); MIS12C^(Nsl1 E219/RV220R/F221A); source: High-5 insect cells (baculovirus), purified (Strep-Tactin, Resource S, Superdex 200); copies: + + +
B4: MIS12 complex with Dsn1 P332W R334A L336R (complex, Homo sapiens)
chain 1: B2 chain 1
chain 2: B2 chain 2
chain 3: B2 chain 3 with P332W, R334A, L336R
chain 4: B2 chain 4
notes: Mis12, subunit of human MIS12C; Pmf1, subunit of human MIS12C; Dsn1, subunit of human MIS12C, P332W R334A L336R; Nsl1, subunit of human MIS12C; also called MIS12C^(Dsn1-P332W R334A L336R); MIS12C^(Dsn1 P332W/R334A/L336R); source: High-5 insect cells (baculovirus), purified (Strep-Tactin, Resource S, Superdex 200); copies: + + +
B5: Dsn1-P332W R334A L336R and Nsl1-E219R V220R F221A mutants: MIS12C combining the Dsn1 and Nsl1 interface mutants (protein)
chain 1: B2 chain 1
chain 2: B2 chain 2
chain 3: B2 chain 3 with P332W, R334A, L336R
chain 4: B2 chain 4 with E219R, V220R, F221A
modifications: left off: double strep II (DS), C-terminal, state not stated
B6: Nsl1-E219R V220R F221A mutant: MIS12C with E219R V220R F221A substitutions in Nsl1 (protein)
chain 1: B2 chain 1
chain 2: B2 chain 2
chain 3: B2 chain 3
chain 4: B2 chain 4 with E219R, V220R, F221A
modifications: left off: double strep II (DS), C-terminal, state not stated
B7: Dsn1-P332W R334A L336R mutant: MIS12C with P332W/R334A/L336R substitutions in Dsn1 (protein)
chain 1: B2 chain 1
chain 2: B2 chain 2
chain 3: B2 chain 3 with P332W, R334A, L336R
chain 4: B2 chain 4
modifications: left off: double strep II (DS), C-terminal, state not stated

Experiments:
[1] = target: T1, MIS12C (WT) (Homo sapiens, UniProt Q6P1K2+Q96IY1+Q9H081+Q9H410); assay: Isothermal titration calorimetry (ITC), peptide titrated into wild-type MIS12C; assay type: binding; conditions: 20 °C, 20 mM HEPES pH 7.5, 100 mM NaCl, 1 mM TCEP, syringe Dsn1^92-113 W96A/R97A/R98A 1.0 mM, cell MIS12C(WT) 0.089 mM, listed as Dsn1^92–113 peptide with three Ala residues
T1 construct: TEV-cleavable double Strep II (DS) tag (C); made in house; host or cells: High-5 insect cells (baculovirus)

[2] = target: B2; assay: SEC; MIS12C or MIS12C^Nsl1ΔC mixed with Knl1 2131–2337 or its mutants at 4 µM each; 20 mM HEPES pH 7.8, 150 mM NaCl, 0.5 mM TCEP; Superose 6; fractions on SDS-PAGE; conditions: both partners purified
[3] = target: T2, NDC80 complex (Ndc80, Nuf2, Spc24, Spc25), full length, unmodified (Homo sapiens, UniProt O14777 1-642; Q9BZD4 1-464; Q8NBT2 1-197; Q9HBM1 1-224); assay: SEC; MIS12C variant mixed with NDC80C at 4 µM each; 20 mM HEPES pH 7.8, 150 mM NaCl, 0.5 mM TCEP; Superose 6; fractions on SDS-PAGE; conditions: both partners purified
T2 construct: Ndc80, subunit of human NDC80C; Nuf2, subunit of human NDC80C; Spc24, subunit of human NDC80C; Spc25, subunit of human NDC80C; The DS tag on Nuf2 is TEV cleavable; a cleavage is not described; Ndc80 and Nuf2 were in the cryo-EM sample but not seen at high resolution; also called wild-type NDC80; source: High-5 insect cells (baculovirus), purified (Strep-Tactin, Resource Q, Superdex 200); copies: …
T2 sequence (O14777 whole entry, chain 1 of 4): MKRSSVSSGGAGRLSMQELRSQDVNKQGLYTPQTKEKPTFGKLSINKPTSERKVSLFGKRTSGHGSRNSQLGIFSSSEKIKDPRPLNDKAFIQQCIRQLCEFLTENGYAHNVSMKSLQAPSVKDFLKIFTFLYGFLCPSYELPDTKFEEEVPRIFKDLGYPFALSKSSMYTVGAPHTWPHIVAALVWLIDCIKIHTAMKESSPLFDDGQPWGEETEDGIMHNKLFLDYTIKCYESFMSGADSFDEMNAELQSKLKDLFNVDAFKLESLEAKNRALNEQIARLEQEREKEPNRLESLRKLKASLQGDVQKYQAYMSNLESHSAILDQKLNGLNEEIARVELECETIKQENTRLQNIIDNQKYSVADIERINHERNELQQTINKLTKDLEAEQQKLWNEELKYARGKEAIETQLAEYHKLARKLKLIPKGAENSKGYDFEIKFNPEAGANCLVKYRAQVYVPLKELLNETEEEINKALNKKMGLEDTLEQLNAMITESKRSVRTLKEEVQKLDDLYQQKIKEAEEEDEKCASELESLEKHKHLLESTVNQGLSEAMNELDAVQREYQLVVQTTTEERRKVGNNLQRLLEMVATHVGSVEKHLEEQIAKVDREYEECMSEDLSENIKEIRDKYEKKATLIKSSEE
T2 sequence (Q9BZD4 whole entry, chain 2 of 4): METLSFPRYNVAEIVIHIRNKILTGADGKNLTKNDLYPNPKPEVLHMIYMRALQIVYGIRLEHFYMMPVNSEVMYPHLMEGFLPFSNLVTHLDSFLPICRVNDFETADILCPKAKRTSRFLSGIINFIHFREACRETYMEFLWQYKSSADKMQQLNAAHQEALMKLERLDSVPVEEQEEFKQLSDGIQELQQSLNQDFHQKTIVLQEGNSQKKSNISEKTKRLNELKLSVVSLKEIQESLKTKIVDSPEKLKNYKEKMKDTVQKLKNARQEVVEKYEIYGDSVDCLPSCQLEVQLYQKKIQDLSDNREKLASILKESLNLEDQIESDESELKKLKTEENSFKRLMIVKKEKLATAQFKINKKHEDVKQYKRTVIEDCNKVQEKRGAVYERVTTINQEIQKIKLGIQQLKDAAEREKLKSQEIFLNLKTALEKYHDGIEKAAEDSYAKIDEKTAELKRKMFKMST
T2 sequence (Q8NBT2 whole entry, chain 3 of 4): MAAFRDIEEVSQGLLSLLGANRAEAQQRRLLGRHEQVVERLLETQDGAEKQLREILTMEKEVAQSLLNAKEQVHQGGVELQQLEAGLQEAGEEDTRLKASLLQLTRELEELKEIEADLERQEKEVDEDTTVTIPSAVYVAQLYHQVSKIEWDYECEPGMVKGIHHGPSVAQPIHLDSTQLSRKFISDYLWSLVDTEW
T2 sequence (Q9HBM1 whole entry, chain 4 of 4): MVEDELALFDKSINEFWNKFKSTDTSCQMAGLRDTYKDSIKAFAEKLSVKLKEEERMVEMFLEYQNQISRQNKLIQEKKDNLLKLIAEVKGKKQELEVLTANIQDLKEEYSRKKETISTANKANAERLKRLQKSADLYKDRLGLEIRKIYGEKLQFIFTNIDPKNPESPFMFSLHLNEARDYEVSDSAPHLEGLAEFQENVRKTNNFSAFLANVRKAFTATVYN

[4] = system: NDC80C; assay: SEC assessment of MIS12C mutants binding to NDC80C; design: species or system Homo sapiens; conditions: MIS12C mutant + wild-type NDC80 at 4 µM each; 20 mM HEPES pH 7.8, 150 mM NaCl, 0.5 mM TCEP; Superose 6; SDS-PAGE; at least two repeats
Protocol: Assessment of substitutions in the MIS12C–NDC80C interfaces
To test the effect of substitutions in the MIS12C–NDC80C interfaces, either wild-type MIS12C or three MIS12C mutants (MIS12C^Nsl1-E219R V220R F221A, MIS12C^Dsn1-P332W R334A L336R, MIS12C^Nsl1-E219R V220R F221A, Dsn1-P332W R334A L336R) were mixed with wild-type NDC80 at 4 µM each in a buffer of 20 mM HEPES (pH 7.8), 150 mM NaCl and 0.5 mM TCEP, and 50 µl was loaded onto a Superose 6 size-exclusion column (Cytiva).
Extended Data Fig. 7 Biochemical characterization of MIS12C:NDC80C interactions. a Coomassie blue-stained SDS-PAGE gels of the MIS12C:NDC80C interaction reconstitutions. MIS12C (WT), MIS12C with E219/RV220R/F221A substitutions in Nsl1 (MIS12C^Nsl1 E219/RV220R/F221A) and MIS12C with P332W/R334A/L336R substitutions in Dsn1 (MIS12C^Dsn1 P332W/R334A/L336R) were tested for binding to full-length, unmodified NDC80C. The binding experiments were repeated at least two independent times with identical results. The gels are aligned according to the fraction number of the protein sample eluted from the size exclusion column. b SEC elution chromatograms of all of the experiments described in (a). c. Comparison of the Spc24:Spc25 interaction with peptides from MIS12C and CENP-T (PDB ID: 3VZA ref. [29]). Source data

Molecule | binding result [3] | MIS12C–NDC80C interaction by SEC, in words [4] | other results
RRQSAAAASMKETNRRKSLHPI-AW [Dsn1^92–113 W96A R97A R98A, Dsn1^92–113 peptide with WRR linchpin substituted by three Ala residues] | – | – | Kd / interaction of mutant Dsn1^92–113 peptide, in words [1]: completely abolished
B1 | – | – | binding result [2]: binds
B2 | binds | – | –
B3 | binds | – | –
B4 | binds | – | –
B5 | – | completely abolished MIS12C–NDC80C interactions | –
B6 | – | reduced the affinity of MIS12C for NDC80C | –
B7 | – | reduced the affinity of MIS12C for NDC80C | –
